Among the data in PMC3883592 are amount bound as percent of human APC, fold increase of binding with 1 mM Mg2+ over Ca2+ alone and Kd values, retold here.

For this assay, the target named is mEPCR on mouse brain microvascular endothelial cells (bEND3) (mouse (endogenous in bEND3)) (UniProt Q64695). Description: radioligand binding.

A word on the Kd: it is a measure of binding affinity in units of concentration. A lower Kd goes with a tighter complex.

Sequence of mEPCR on mouse brain microvascular endothelial cells (bEND3) (mouse (endogenous in bEND3)) (Q64695 18-242): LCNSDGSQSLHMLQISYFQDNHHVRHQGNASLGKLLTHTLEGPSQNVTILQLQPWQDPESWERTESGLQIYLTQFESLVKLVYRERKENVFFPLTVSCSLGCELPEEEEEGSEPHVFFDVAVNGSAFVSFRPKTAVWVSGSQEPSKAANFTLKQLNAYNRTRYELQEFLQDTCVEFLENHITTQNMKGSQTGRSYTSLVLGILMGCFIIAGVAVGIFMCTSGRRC

On to Mouse APC (enzyme), for which the amount bound as percent of human APC at 50 nM came to 30% and the fold increase of binding with 1 mM Mg2+ over Ca2+ alone was 3 fold.

As to “Recombinant activated human protein C (Xigris) (enzyme)”, the dissociation constant (Kd) amounted to 23 nM and the fold increase of binding with 1 mM Mg2+ over Ca2+ alone turned out to be 10 fold.
